# Measured values published in US11499162B2, “Plants having increased tolerance to herbicides” (BASF SE, priority 2016, dated 2022).
# B1: ΔA170_S182: TriA deletion variant of SEQ ID NO: 2 (protein)
# chain: MQTLSIQHGTLVTMDQYRRVLGDSWVHVQDGRIVALGVHAESVPPPADRVIDARGKVVLPGFINAHTHVNQILLRGGPSHGRQLYDWLFNVLYPGQKAMRPEDVAVAVRLYCAEAVRSGITTINDNADSAIYPGNIEAAMAVYGEVGVRVVYARMFFDRMDGRIQGYVDIMEETAVAKDRITALSDQYHGTAGGRISVWPAPAITPAVTVEGMRWAQAFARDRAVMWTLHMAESDHDERLHWMSPAEYMECYGLLDERLQVAHCVYFDRKDVRLLHRHNVKVASQVVSNAYLGSGVAPVPEMVERGMAVGIGTDDGNCNDSVNMIGDMKFMAHIHRAVHRDADVLTPEKILEMATIDGARSLGMDHEIGSIETGKRADLILLDLRHPQTTPHHHLAATIVFQAYGNEVDTVLIDGNVVMENRRLSFLPPERELAFLEEAQSRATAILQRANMVANPAWRSL
# modifications: Pseudomonas
# B2: ΔR174_L180: TriA deletion variant of SEQ ID NO: 2 (protein)
# chain: MQTLSIQHGTLVTMDQYRRVLGDSWVHVQDGRIVALGVHAESVPPPADRVIDARGKVVLPGFINAHTHVNQILLRGGPSHGRQLYDWLFNVLYPGQKAMRPEDVAVAVRLYCAEAVRSGITTINDNADSAIYPGNIEAAMAVYGEVGVRVVYARMFFDRMDGRIQGYVDALKACSIMEETAVAKDRITALSDQYHGTAGGRISVWPAPAITPAVTVEGMRWAQAFARDRAVMWTLHMAESDHDERLHWMSPAEYMECYGLLDERLQVAHCVYFDRKDVRLLHRHNVKVASQVVSNAYLGSGVAPVPEMVERGMAVGIGTDDGNCNDSVNMIGDMKFMAHIHRAVHRDADVLTPEKILEMATIDGARSLGMDHEIGSIETGKRADLILLDLRHPQTTPHHHLAATIVFQAYGNEVDTVLIDGNVVMENRRLSFLPPERELAFLEEAQSRATAILQRANMVANPAWRSL
# modifications: Pseudomonas
# B3: N302E: mutated TriA variant of SEQ ID NO: 2 (protein)
# chain: MQTLSIQHGTLVTMDQYRRVLGDSWVHVQDGRIVALGVHAESVPPPADRVIDARGKVVLPGFINAHTHVNQILLRGGPSHGRQLYDWLFNVLYPGQKAMRPEDVAVAVRLYCAEAVRSGITTINDNADSAIYPGNIEAAMAVYGEVGVRVVYARMFFDRMDGRIQGYVDALKARSPQVELCSIMEETAVAKDRITALSDQYHGTAGGRISVWPAPAITPAVTVEGMRWAQAFARDRAVMWTLHMAESDHDERLHWMSPAEYMECYGLLDERLQVAHCVYFDRKDVRLLHRHNVKVASQVVSEAYLGSGVAPVPEMVERGMAVGIGTDDGNCNDSVNMIGDMKFMAHIHRAVHRDADVLTPEKILEMATIDGARSLGMDHEIGSIETGKRADLILLDLRHPQTTPHHHLAATIVFQAYGNEVDTVLIDGNVVMENRRLSFLPPERELAFLEEAQSRATAILQRANMVANPAWRSL
# modifications: Pseudomonas
# B4: N70S: mutated TriA variant of SEQ ID NO: 2 (protein)
# chain: MQTLSIQHGTLVTMDQYRRVLGDSWVHVQDGRIVALGVHAESVPPPADRVIDARGKVVLPGFINAHTHVSQILLRGGPSHGRQLYDWLFNVLYPGQKAMRPEDVAVAVRLYCAEAVRSGITTINDNADSAIYPGNIEAAMAVYGEVGVRVVYARMFFDRMDGRIQGYVDALKARSPQVELCSIMEETAVAKDRITALSDQYHGTAGGRISVWPAPAITPAVTVEGMRWAQAFARDRAVMWTLHMAESDHDERLHWMSPAEYMECYGLLDERLQVAHCVYFDRKDVRLLHRHNVKVASQVVSNAYLGSGVAPVPEMVERGMAVGIGTDDGNCNDSVNMIGDMKFMAHIHRAVHRDADVLTPEKILEMATIDGARSLGMDHEIGSIETGKRADLILLDLRHPQTTPHHHLAATIVFQAYGNEVDTVLIDGNVVMENRRLSFLPPERELAFLEEAQSRATAILQRANMVANPAWRSL
# modifications: Pseudomonas
# B5: Q71T: mutated TriA variant of SEQ ID NO: 2 (protein)
# chain: MQTLSIQHGTLVTMDQYRRVLGDSWVHVQDGRIVALGVHAESVPPPADRVIDARGKVVLPGFINAHTHVNTILLRGGPSHGRQLYDWLFNVLYPGQKAMRPEDVAVAVRLYCAEAVRSGITTINDNADSAIYPGNIEAAMAVYGEVGVRVVYARMFFDRMDGRIQGYVDALKARSPQVELCSIMEETAVAKDRITALSDQYHGTAGGRISVWPAPAITPAVTVEGMRWAQAFARDRAVMWTLHMAESDHDERLHWMSPAEYMECYGLLDERLQVAHCVYFDRKDVRLLHRHNVKVASQVVSNAYLGSGVAPVPEMVERGMAVGIGTDDGNCNDSVNMIGDMKFMAHIHRAVHRDADVLTPEKILEMATIDGARSLGMDHEIGSIETGKRADLILLDLRHPQTTPHHHLAATIVFQAYGNEVDTVLIDGNVVMENRRLSFLPPERELAFLEEAQSRATAILQRANMVANPAWRSL
# modifications: Pseudomonas
# B6: Y304K: mutated TriA variant of SEQ ID NO: 2 (protein)
# chain: MQTLSIQHGTLVTMDQYRRVLGDSWVHVQDGRIVALGVHAESVPPPADRVIDARGKVVLPGFINAHTHVNQILLRGGPSHGRQLYDWLFNVLYPGQKAMRPEDVAVAVRLYCAEAVRSGITTINDNADSAIYPGNIEAAMAVYGEVGVRVVYARMFFDRMDGRIQGYVDALKARSPQVELCSIMEETAVAKDRITALSDQYHGTAGGRISVWPAPAITPAVTVEGMRWAQAFARDRAVMWTLHMAESDHDERLHWMSPAEYMECYGLLDERLQVAHCVYFDRKDVRLLHRHNVKVASQVVSNAKLGSGVAPVPEMVERGMAVGIGTDDGNCNDSVNMIGDMKFMAHIHRAVHRDADVLTPEKILEMATIDGARSLGMDHEIGSIETGKRADLILLDLRHPQTTPHHHLAATIVFQAYGNEVDTVLIDGNVVMENRRLSFLPPERELAFLEEAQSRATAILQRANMVANPAWRSL
# modifications: Pseudomonas
# B7: ΔS129_A130: TriA deletion variant of SEQ ID NO: 2 (protein)
# chain: MQTLSIQHGTLVTMDQYRRVLGDSWVHVQDGRIVALGVHAESVPPPADRVIDARGKVVLPGFINAHTHVNQILLRGGPSHGRQLYDWLFNVLYPGQKAMRPEDVAVAVRLYCAEAVRSGITTINDNADIYPGNIEAAMAVYGEVGVRVVYARMFFDRMDGRIQGYVDALKARSPQVELCSIMEETAVAKDRITALSDQYHGTAGGRISVWPAPAITPAVTVEGMRWAQAFARDRAVMWTLHMAESDHDERLHWMSPAEYMECYGLLDERLQVAHCVYFDRKDVRLLHRHNVKVASQVVSNAYLGSGVAPVPEMVERGMAVGIGTDDGNCNDSVNMIGDMKFMAHIHRAVHRDADVLTPEKILEMATIDGARSLGMDHEIGSIETGKRADLILLDLRHPQTTPHHHLAATIVFQAYGNEVDTVLIDGNVVMENRRLSFLPPERELAFLEEAQSRATAILQRANMVANPAWRSL
# modifications: Pseudomonas
# B8: ΔA130_I131: TriA deletion variant of SEQ ID NO: 2 (protein)
# chain: MQTLSIQHGTLVTMDQYRRVLGDSWVHVQDGRIVALGVHAESVPPPADRVIDARGKVVLPGFINAHTHVNQILLRGGPSHGRQLYDWLFNVLYPGQKAMRPEDVAVAVRLYCAEAVRSGITTINDNADSYPGNIEAAMAVYGEVGVRVVYARMFFDRMDGRIQGYVDALKARSPQVELCSIMEETAVAKDRITALSDQYHGTAGGRISVWPAPAITPAVTVEGMRWAQAFARDRAVMWTLHMAESDHDERLHWMSPAEYMECYGLLDERLQVAHCVYFDRKDVRLLHRHNVKVASQVVSNAYLGSGVAPVPEMVERGMAVGIGTDDGNCNDSVNMIGDMKFMAHIHRAVHRDADVLTPEKILEMATIDGARSLGMDHEIGSIETGKRADLILLDLRHPQTTPHHHLAATIVFQAYGNEVDTVLIDGNVVMENRRLSFLPPERELAFLEEAQSRATAILQRANMVANPAWRSL
# modifications: Pseudomonas
# Type: biochemical
# Details: pH 7.2
# Protocol: EXAMPLE 3: Protein Purification. TriA and variants thereof were produced in E. coli BL21(DE3) Gold (Agilent Technologies, Germany). Therefore E. coli was transformed with appropriate pET24d N-HIS tag expression vector and chaperone plasmid pGro7 (chaperones groEL and groES). Bacterial strains were grown at 30° C. in 100 mL LB for 20 h and protein expression induced with 0.1 mM IPTG at 25° C. for 20 hs. Cells were harvested by centrifugation at 3000 rpm at 4° C. for 20 min, resuspended in Bug Buster protein extraction reagent (Novagen, Germany) according to manufactures instructions. Lysates were clarified by centrifugation. Samples of bovine serum albumin ([…]) were loaded onto each gel analyzed by densitometry to provide an internal standard. Protein determinations were verified using Coomassie protein assay dye, according to manufactures instruction (Thermo Scientific; USA). The HIS-tagged enzymes were purified by metal ion affinity chromatography using Ni-IDA 1000 kit (Macherey-Nagel, Germany) following manufactures instructions. Protein purity was accessed by SDS-PAGE using NuPAGE Novex 4-12% Bis-Tris pre-cast gels (Life Technologies; USA) stained with Coomassie Brilliant Blue (Serva, Germany). Protein concentrations were estimated by measuring absorbance at 280 nm using Lambda Bio+(Perkin Elmer, USA). EXAMPLE 4: Enzyme kinetics. Resting cell suspension containing triA gene were incubated with various azines, melamine and atrazine and the culture filtrate was analyzed by UPLC-HR-MS. Substrates were obtained either from Sigma-Aldrich or synthesized internally. Synthetic standards and enzyme reaction products were analysed by UPLC-HR-MS (Thermo/Dionex UPLC UltiMate3000 coupled to a QExactive high resolution mass spectrometer). A Waters Acquity HSS T3 column (2.1 mm; 100 mm; […]) was used with a mobile phase water/acetonitrile (0.1% formic acid) with a flow rate of […]. Enzymes were used solved 25 mM sodium phosphate buffer (pH 7.2) with substrate concentration in the range of 1 nM to 10 nM at 30° C. Over time, the original azine peak disappeared whereas the formed OH-Metabolite (reaction product) increased. The product was identified by determination of the exact formula and by analysis of the accurate MS-MS fragments. Moreover for some of the formed products authentic standards were co-eluted. Degradation in % was calculated against the cells harboring the empty vector as control.
Molecule,"Degradation in % of 6-cyclopentyl-N4-(2,3,4,5,6-pentafluorophenyl)-1,3,5-triazine-2,4-diamine [%]",Degradation in % of Melamine [%]
B1,2,0
B2,0,1
B3,1,8
B4,0,0
B5,0,0
B6,0,2
B7,3,0
B8,0,3
